The record followed here is patent publication US20210147523A1 (TEIJIN PHARMA, published 2021).

Assay [1] addresses T1, human SPNS2 (human, UniProt Q8IVW8 1-549).
T1 construct: S1P transporter; in Cell ELISA and S1P assays on Flp-in 293 cells that also express human SphK1; also called Spinster homolog 2; native type
T1 sequence: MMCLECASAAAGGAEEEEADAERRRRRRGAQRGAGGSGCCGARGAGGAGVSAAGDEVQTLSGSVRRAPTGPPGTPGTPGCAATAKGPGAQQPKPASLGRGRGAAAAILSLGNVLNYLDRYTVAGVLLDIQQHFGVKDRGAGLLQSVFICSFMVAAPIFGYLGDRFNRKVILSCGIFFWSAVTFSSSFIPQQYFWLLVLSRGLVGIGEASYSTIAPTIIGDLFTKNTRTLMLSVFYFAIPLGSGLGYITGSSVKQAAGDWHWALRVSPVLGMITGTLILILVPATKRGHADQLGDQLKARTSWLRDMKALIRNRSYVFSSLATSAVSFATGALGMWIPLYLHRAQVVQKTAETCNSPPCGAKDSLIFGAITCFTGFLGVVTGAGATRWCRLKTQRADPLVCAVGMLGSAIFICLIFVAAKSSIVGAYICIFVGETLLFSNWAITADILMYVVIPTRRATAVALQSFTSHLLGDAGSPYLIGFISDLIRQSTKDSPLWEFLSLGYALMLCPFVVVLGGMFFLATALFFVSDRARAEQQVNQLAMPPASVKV
The assay is described as follows: Cell ELISA. The method, then: (§1) Human and mouse SPNS2 and human SphK1 double stable expression Flp-in 293 cells were added to a poly D lysine coat 96-well plate (Corning, 356461) in a density of 1×10⁵ cells/well and was cultivated overnight, and then the culture medium was removed. An anti-SPNS2 antibody solution was adjusted into 20 μg/mL using 0.2% FBS/3% BSA/PBS, and 0.2% FBS/3% BSA/PBS (60 μL) was added to the antibody diluted solution (20 μL) to prepare seven-step diluted solutions by four fold serial dilution. Each diluted solution of the anti-SPNS2 antibody was added in a volume of 30 μL/well, and reacted for about one hour at room temperature. The antibody solution was removed, and the residue was washed with PBS containing 0.05% Tween 20 (PBS-T) two times, and fixed for about ten minutes at room temperature using 10% buffered formalin (Mildform (Trade mark) 10NM, Wako). After washing with PBS-T one time, a 5000-fold diluted solution of anti-rat IgG antibody HRP conjugate (Southern Biotech, 3030-05) in 0.2% FBS/3% BSA/PBS was added to each well (30 μL), and reacted for about one hour at room temperature. After washing with PBS-T four times, a substrate (TMB; 3, 3′, 5, 5′-tetramethylbenzidin) was added to each well (100 μL) to initiate the reaction. After 20 minutes, 2N sulfuric acid was added to each well (100 μL), and absorbance at 450 nm and 550 nm was measured. […] Each antibody bound to human SPNS2 and mouse SPNS2.
In general terms: An ELISA detects its analyte on a solid surface through an enzyme-linked reagent.

The target of assay [2] is T2, mouse SPNS2 (mouse, UniProt Q91VM4 1-549).
T2 construct: on Flp-in 293 cells that also express human SphK1
T2 sequence: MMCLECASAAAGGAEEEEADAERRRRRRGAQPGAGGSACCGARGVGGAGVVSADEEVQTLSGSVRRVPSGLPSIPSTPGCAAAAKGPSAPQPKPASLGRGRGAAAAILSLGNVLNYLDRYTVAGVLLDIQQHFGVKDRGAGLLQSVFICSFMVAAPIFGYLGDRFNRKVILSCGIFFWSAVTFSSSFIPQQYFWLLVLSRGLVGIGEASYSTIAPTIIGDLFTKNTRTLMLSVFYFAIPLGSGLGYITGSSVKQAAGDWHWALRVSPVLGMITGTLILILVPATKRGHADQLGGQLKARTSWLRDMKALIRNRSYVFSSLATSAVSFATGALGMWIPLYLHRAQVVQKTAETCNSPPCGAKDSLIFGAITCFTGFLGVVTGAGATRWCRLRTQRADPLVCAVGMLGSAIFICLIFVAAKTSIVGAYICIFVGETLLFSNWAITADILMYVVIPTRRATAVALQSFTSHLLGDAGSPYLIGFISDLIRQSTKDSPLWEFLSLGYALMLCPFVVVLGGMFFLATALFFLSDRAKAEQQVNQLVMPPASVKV
The assay is described as follows: Cell ELISA. The method, then:
as §1

For assay [3], the target named is T1, human SPNS2. The assay is described as follows: cell-based or functional assay.
For assay [4], the target named is T2, mouse SPNS2. The assay is described as follows: cell-based or functional assay.
The target of assay [5] is T3, Mutant 4 of human SPNS2 (FLAG tag inserted in extracellular loop 11) (human, UniProt Q8IVW8 1-549).
T3 construct: on HEK293 cells; also called extracellular loop 11 mutant
T3 sequence: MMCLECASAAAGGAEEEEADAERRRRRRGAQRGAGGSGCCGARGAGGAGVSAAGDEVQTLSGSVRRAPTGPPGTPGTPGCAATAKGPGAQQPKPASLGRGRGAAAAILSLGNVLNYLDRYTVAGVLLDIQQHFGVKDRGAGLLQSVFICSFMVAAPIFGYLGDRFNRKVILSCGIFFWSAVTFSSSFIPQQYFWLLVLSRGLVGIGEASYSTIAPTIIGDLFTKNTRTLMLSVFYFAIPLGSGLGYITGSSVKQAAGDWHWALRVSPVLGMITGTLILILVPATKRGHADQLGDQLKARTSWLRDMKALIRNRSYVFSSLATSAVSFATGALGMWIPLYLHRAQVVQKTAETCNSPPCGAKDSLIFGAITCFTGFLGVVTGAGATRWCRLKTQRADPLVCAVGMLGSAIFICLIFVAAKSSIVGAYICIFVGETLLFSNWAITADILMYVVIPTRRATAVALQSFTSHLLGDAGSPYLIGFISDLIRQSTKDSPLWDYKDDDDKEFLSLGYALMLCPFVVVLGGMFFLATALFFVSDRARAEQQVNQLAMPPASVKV
The assay is described as follows: flow cytometry, FLAG-insertion mutant. The method, then: After the lipofection, the HEK 293 cells cultivated overnight were recovered from the culture dishes, and reacted with a cell staining buffer (BioLegend, 420201) containing an anti-FLAG antibody (Sigma-Aldrich, F1804) and an anti-SPNS2 antibody each in a volume of 20 μg/mL for 30 minutes at room temperature. After washing with a cell staining buffer one time, the anti-FLAG antibody was detected with an anti-mouse IgG-Alexa 647 conjugate antibody, and the anti-SPNS2 antibody was detected with an anti-rat IgG-FITC conjugate antibody with flow cytometer BD LSR Fortessa (Becton Dickinson). The binding ability to each mutant was evaluated with the ratio of the FITC-positive cell rate to the Alexa 647-positive cell rate. In Table 7, symbol (+) indicates a ratio of less than 0.1, symbol (±) indicates a ratio of 0.1 or more and less than 0.5, and symbol (−) indicate a ratio of 0.5 or more.
On the technique in general: Flow cytometry measures light scatter and fluorescence of single cells or particles in a stream.

B1: 33-0503E (antibody, IgG2b, V domains shown)
VH: EVQLVESGGGLVRPGGSMKLSCGASGFIFDNYYMTWVRQAPTKGLEWVASISSSGGNTYYRDSVRGRFTISRDNAGNTLSLQMGSLRAEDTATYHCAKEGYRGRYFDYWGQGVMVTVSS
VL: QVVLTQPNSVSTNLGSTVKLSCKRTTGNIGSNYVNWYQQHEGRSPTTMIYRDDERPDGVPDRFSGSIDRSSNSALLTINNVQTEDEAEYFCQSYSSGIIFGGGTKLTVL
As for B1, the Emax is 2.03 absorbance in the assay with human SPNS2 [1] and 2.2 absorbance with mouse SPNS2 [2]. In addition, the values for the pEC50 with human SPNS2 [1] and in the assay with mouse SPNS2 [2] were 8.12 pEC50 (M) and 7.66 pEC50 (M), respectively. Also, the entries for the “pIC50, S1P transport inhibition (S1PR3 Ca2+ FLIPR bioassay)” value (shortened to “pIC50, S1P transport inhibition”) in the assay with human SPNS2 [3] and in the assay with mouse SPNS2 [4] were 7 pIC50 (M) and 7.5 pIC50 (M), respectively. Further, the “FITC+/Alexa 647+ cell rate ratio” value in assay [5] was no less than 0.5 ratio.

B2: 96-1403F (antibody, IgG2b, V domains shown)
VH: EVQLVETGGGLVRPGSSLKLSCATSGFTFSDTWMSWVRQAPGKGLEWVALIKDKNSNSEANYAESIKGRFTISRDDSKSRVYLQMNTLRDQDTATYYCTRHEDFYYYSGYYFDYWGQGVMVTVSS
VL: DIVLTQSPPTLSVTPGESVSLSCRASQGISTSIHWYQQRSNESPRLLIKYASQSIAGIPSRFSGSGSGTDFILSINRVESEDFSVYYCQQTYSLPLTFGPGTKLEVKR
On to B2, for which the Emax with human SPNS2 [1] turned out to be 1.86 absorbance; with mouse SPNS2 [2], 1.78 absorbance. Also, the pEC50 in the assay with human SPNS2 [1] is 7.76 pEC50 (M); with mouse SPNS2 [2], 7.42 pEC50 (M). For the same molecule, the “pIC50, S1P transport inhibition” value in the assay with human SPNS2 [3] is 6.9 pIC50 (M); with mouse SPNS2 [4], 7.3 pIC50 (M). Besides, the “FITC+/Alexa 647+ cell rate ratio” value in assay [5] was no less than 0.5 ratio.

B3: 49-0703G (antibody, IgG2b, V domains shown)
VH: EVQLVESGGGLVQPGRSMKLSCAASGFTFSNHYMAWVRQAPTKGLEWVASISTGGGNTYYRDSVKGRFTISRDNAKSTLYLQMDSLRSEDTATYYCARQDYSNYMGGFAYWGQGTLVTVSS
VL: QFVLTQPNSVSTNLGSTVKLSCKRSTGNIGNNYVNWYQQYEGRSPTTMIYRDDERPDGVPDRFSGSIDRSSNSALLTINNVQTEDEADYFCQSFSNGMFIFAGGTQLTVL
With B3, the Emax with human SPNS2 [1] worked out at 1.77 absorbance; with mouse SPNS2 [2], 1.67 absorbance. Moreover, the results for the pEC50 in the assay with human SPNS2 [1] and in the assay with mouse SPNS2 [2] were 8.42 pEC50 (M) and 8.09 pEC50 (M), respectively. For the same molecule, the “pIC50, S1P transport inhibition” value with human SPNS2 [3] is 7 pIC50 (M); in the assay with mouse SPNS2 [4] it was 7.3 pIC50 (M). Besides, the “FITC+/Alexa 647+ cell rate ratio” value in assay [5] is no less than 0.5 ratio.

B4: 94-1311E (antibody, V domains shown)
VH: EVQLQQSGAGLVRPRTSVRLSCKISGDSITAYYVHFVKQRPGQGLEWIGRIDPEDDSTKYSEKFKNKATLTADVSSSTAYLILSSLTSDDSATYFCSTLTGLDYWGQGVMVTVSS
VL: DIQMTQSPPVLSASVGDRVTLSCKASQSVHNKLDWYQQKHGEAPKLLIYYTHNLQTGIPSRFSGSGSGSDYTLTISSLRAEDVATYYCFQYYSGWTFGGGTKLEMKR
In the case of B4, the Emax with human SPNS2 [1] came out at 1.61 absorbance; with mouse SPNS2 [2] it was 1.52 absorbance. For the same molecule, the pEC50 with human SPNS2 [1] was 8.34 pEC50 (M); in the assay with mouse SPNS2 [2] it was 8.2 pEC50 (M). For the same molecule, the “pIC50, S1P transport inhibition” value with human SPNS2 [3] was 7.8 pIC50 (M); with mouse SPNS2 [4], 8.1 pIC50 (M). In addition, the “FITC+/Alexa 647+ cell rate ratio” value in assay [5] was no less than 0.5 ratio.
